B1: Ab1: anti-NAMPT single-chain variable fragment antibody clone, 247 amino acids, SEQ ID NO 1/2, in pCAGGS expression vector (protein, listed as Homo sapiens)
scFv: MEVQLLESGGGLVQPGGSLRLSCAASGFTFSSYAMSWVRQAPGKGLEWVSVINVPGNRTSYADSVKGRFTISRDNSKNTLYLQMNSLRAEDTAVYYCAKKTRRFDYWGQGTLVTVSSGGGGSGGGGSGGGGSTDIQMTQSPSSLSASVGDRVTITCRASQSISSYLNWYQQKPGKAPKLLIYGASVLQSGVPSRFSGSGSGTDFTLTISSLQPEDFATYYCQQRVRSPATFGQGTKVEIKRHHHHHH
modifications: (32)..(36) CDR1; (51)..(70) CDR2 scFv1; (99)..(105) CDR3 scFv1; (157)..(167) CDR4; (183)..(189) CDR5 scFv1; (224)..(230) CDR6 scFv1; (242)..(247) Histidine Tag
B2: Ab2: anti-NAMPT single-chain variable fragment antibody clone, 249 amino acids, SEQ ID NO 3/4, in pCAGGS expression vector (protein, listed as Homo sapiens)
scFv: MEVQLLESGGGLVQPGGSLRLSCAASGFAFSSYAMSWVRQAPGKGLEWVSNISGRGAKTTYADSVKGRFTISRDNSKNTLYLQMNSLRAEDTAVYYCAKTYLVFDYWGQGTLVTVSSGGGGSGGGGSGGGGSTDIQMTQSPSSLSASVGDRVTITCRASQSISSYLNWYQQKPGKAPKLLIYRASSLQSGVPSRFSGSGSGTDFTLTISSLQPEDFATYYCQQISATPTTFGQGTKVEIKRAAHHHHHH
modifications: (32)..(36) CDR1; (41)..(60) CDR2 scFv2; (90)..(96) CDR3 scFv3; (108)..(122) 15-mer linker sequence; (147)..(157) CDR4; (173)..(180) CDR5 scFv2; (214)..(220) CDR6 scFv2; (234)..(239) Histidine Tag

Key:
SP-B = SP-B expression in H441 cells pretreated with FK866, without or with TNF-α (western blot); type: cell-based, human
Protocol: FIG. 21 illustrates NAMPT inhibited SP-B expression via both its nonenzymatic and enzymatic activity. (A) H441 cells were transfected with either pCAGGS, pCAGGS-hNAMPT or pCAGGS-H247E. Cell lysate of NAMPT (10 μg), SP-B (30 μg) and GAPDH (10 μg) proteins were detected by western blot. Protein bands were quantified by densitometry using image J, and NAMPT levels (B) and SP-B levels (C) were normalized to GAPDH levels. Values are means±SD of 3 independent experiments. *p<0.05 vs. pCAGGS cells; #p<0.05 vs pCAGGS-hNAMPT cells. (D) H441 cells were pretreated with different doses of FK866 for 6 h before treatment without or with TNF-α (25 ng/ml) for 24 hours. Cell lysate of NAMPT (10 μg), SP-B (30 μg) and GAPDH (10 μg) proteins were detected by western blot. Protein bands were quantified by densitometry using image J, and NAMPT levels (E) and SP-B levels (F) were normalized to GAPDH levels. Values are means±SD of 3 independent experiments. *p<0.05 vs cells without FK866 or rhTNF-α treatment. #p<0.05 vs cells pretreated with FK866 but without rhTNF-α treatment;
This example determined that NAMPT inhibits SP-B expression mainly via its nonenzymatic activity and partly via its enzymatic activity. […]

CIA = CIA mice; cited from earlier work
[1] = cited from earlier work
macrophage cell lines = assay: MTS proliferation assay in transfected macrophage cell lines (RAW 264.7); type: cell-based, mouse; settings: data not shown
From the text: (§1) In one embodiment of the present disclosure, as best shown in FIG. 1A, the cDNA for each single-chain variable fragment (scFv) antibody was cloned, including a histidine tag on the 3′ end, into the pCAGGS expression vector. The VH and VL fragments for each scFv are separated by a (G4S)3 linker and encode proteins of 247 and 249 amino acids, respectively for NAMPT-scFv1 (antibody 1 or Ab1) and scFv2 (antibody 2 or Ab2) (FIG. 1B). To test the anti-NAMPT ability of each construct, MTS assays were performed in transfected 3T3-L1 (ATCC CL-173™) and RAW 264.7 (ATCC® TIB-71™) cells.
We expressed and purified recombinant mouse NAMPT protein and obtained two human against mouse NAMPT antibody gene clones, termed NAMPT-scFv1 (Ab1) and -scFv2 (Ab2), by screening a HuScL-2™ Phage Display Naïve Human scFv Library (www.creative-biolabs.com/). We cloned the cDNAs for each scFv, including a histidine-tag on the 3′ end, into the pCAGGS expression vector. The VH and VL fragments for each scFv are separated by a (G4S)3 linker and encode proteins of 247 and 249 amino acids, respectively for NAMPT-scFv1 and -scFv2. To test the anti-NAMPT ability of each construct, we performed MTS assays in transfected 3T3-L1 (ATCC® CL-173™) and RAW 264.7 (ATCC® TIB-71™) cells. […] To increase the specificity of these constructs we generate a hetero-dimer and a hetero-tetramer using established procedures. […]

cell NAD synthesis = assay: NAD synthesis by transfected 3T3-L1 cells (Amplite Fluorimetric NAD/NADH Ratio Assay Kit); type: cell-based, mouse
Protocol: FIG. 1D is a graphic representation of the results of assay of NAD synthesis by 3T3-L1 cells transfected with scFv1 or pCAGGS control. After 72 h NAD synthesis was measured by Amplite™ Fluorimetric NAD/NADH Ratio Assay Kit (AAT Bioquest®, Inc. prod. number 15263). Values are means±SD, N=4, p≤0.005. Ab1, antibody 1; Ab2, antibody 2;
as §1

[2] = Cell culture experiments: cell death; type: cell-based
From the text: as §1

3T3-L1 cells = assay: MTS / CellTiter 96 AQueous One cell proliferation assay in transfected 3T3-L1 cells; type: cell-based, mouse; settings: for decreased proliferation as compared to the pCAGGS control population: fibroblasts, FIG. 1C; for proliferation of mouse 3T3: transfected cells, preliminary result
Protocol: FIG. 1C is a graphic representation of the results of assay of cell proliferation of 3T3-L1 cells transfected with scFV1 and scFv2 or pCAGGS control. After 72 h, cell proliferation was assayed by CellTiter 96® AQueous One Solution Cell Proliferation Assay (Promega, cat #G3582). Values are means±SD, N=12, * p≤0.001;
as §1
We expressed and purified recombinant mouse NAMPT protein and obtained two human against mouse NAMPT antibody gene clones, termed NAMPT-scFv1 (Ab1) and -scFv2 (Ab2), by screening a HuScL-2™ Phage Display Naïve Human scFv Library (www.creative-biolabs.com/). We cloned the cDNAs for each scFv, including a histidine-tag on the 3′ end, into the pCAGGS expression vector. The VH and VL fragments for each scFv are separated by a (G4S)3 linker and encode proteins of 247 and 249 amino acids, respectively for NAMPT-scFv1 and -scFv2. To test the anti-NAMPT ability of each construct, we performed MTS assays in transfected 3T3-L1 (ATCC® CL-173™) and RAW 264.7 (ATCC® TIB-71™) cells. […] To increase the specificity of these constructs we generate a hetero-dimer and a hetero-tetramer using established procedures. The hetero-dimer [scFv1-scFv2], also called a di-body, is separated by a GGSSRSSSSGGGGSGGGG linker. The hetero-tetramer, also called a tetra-body, consists of two dimers [scFv1-scFv2]2 joined by the HIV1 P21 capsid protein linker, GATPQDLNTML. The P21 linker is an epitope for the murine monoclonal CB4-1 antibody. […] Thus, we utilize the CB4-1 antibody and nickel-columns (His-Tag) to manipulate and purify our recombinant scFv antibodies. We enhance the specificity and tertiary structures of the di-body and tetra-body by modifying the type and length of the linker sequences. Their antisense clone of NAMPT-scFv1 and -scFv2 is used as controls. Since similar effects in in vitro assay were observed, only NAMPT-scFv1 and its antisense clone are used to prepare the constructs under the control of either the human MRP8 promoter or mouse MPO promoter for tissue specific expression in neutrophils or neutrophils and monocytes, respectively.

human a549 cell = assay: Proliferation of human a549 cell (data not shown); type: cell-based

| Molecule | rescue of TNF-α induced inhibition of SP-B (SP-B; FK866 6 h then TNF-α 25 ng/ml 24 hours) | SP-B expression (SP-B; FK866 pretreatment 6 h) | severity and progression of arthritis (CIA) | side effect in humans [1] | proliferation of macrophage cell lines (macrophage cell lines) | NAD synthesis, FIG. 1D values (Avg±SD) (cell NAD synthesis; 3T3-L1 cells transfected, after 72 h, pCAGGS control, N=4) [%+10.4] | cell NAD synthesis (cell NAD synthesis; transfected cells) | cell death [2] | decreased proliferation as compared to the pCAGGS control population (3T3-L1 cells) | proliferation of mouse 3T3 (3T3-L1 cells) | proliferation of human a549 cell (human a549 cell) | cell proliferation, FIG. 1C values (Avg±SD) (3T3-L1 cells; 3T3-L1 cells transfected, after 72 h, pCAGGS control, N=12) [%+4.6] |
| --- | --- | --- | --- | --- | --- | --- | --- | --- | --- | --- | --- | --- |
| O=C(/C=C/c1cccnc1)NCCCCC1CCN(C(=O)c2ccccc2)CC1 [FK866] | did not significantly rescue | increased | effectively reduce | thrombocytopenia |  |  |  |  |  |  |  |  |
| B1 |  |  |  |  | inhibit proliferation | 68.3 | inhibited cell NAD synthesis | induce cell death | about 50% | inhibit proliferation | inhibited proliferation |  |
| B2 |  |  |  |  | inhibit proliferation |  |  | induce cell death | about 50% | inhibit proliferation | inhibited proliferation | 49.8 |

From patent publication US20190023809A1, “ANTI-NICOTINAMIDE PHOSPHORIBOSYLTRANSFERASE ANTIBODY GENES AND METHODS OF USE THEREOF” (The Children's Mercy Hospital, priority 2015, published 2019)
